{
  "source": "patent US20220154170A1",
  "molecular_target": "clade B MN gp41 monomer (HIV-1 clade B, strain MN) (UniProt P05877)",
  "sequence (P05877 514-856 limits assumed)": "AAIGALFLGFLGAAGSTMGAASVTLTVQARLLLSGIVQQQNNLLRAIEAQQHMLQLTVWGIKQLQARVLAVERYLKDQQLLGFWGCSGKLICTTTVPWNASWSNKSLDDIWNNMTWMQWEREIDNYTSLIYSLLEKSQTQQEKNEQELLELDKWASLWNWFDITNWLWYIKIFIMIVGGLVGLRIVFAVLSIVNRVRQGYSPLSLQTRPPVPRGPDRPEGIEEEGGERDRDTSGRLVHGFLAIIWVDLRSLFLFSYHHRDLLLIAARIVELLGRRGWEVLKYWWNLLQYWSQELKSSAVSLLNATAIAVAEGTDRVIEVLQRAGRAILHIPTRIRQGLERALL",
  "experiment": "endpoint ELISA, plate-coated MN gp41",
  "data": [
    {"substance": "240-D (antibody)", "values": [
      {"measurement": "endpoint titer", "result": 78.1, "unit": "ng/mL"}
    ]}
  ]
}
